{"source": "paper PMC6555819", "about": "“Comprehensive study of nuclear receptor DNA binding provides a revised framework for understanding receptor specificity”", "binders": {"B1": {"name": "NRC3_wobSeed34_DR1_G14A_o1 (dsDNA)", "DNA 1": "GCATCGAAAGGTCAAAGGTGAGTATACCCACCCGAAGCGATTGACAGCGTAGAATGAAGG", "DNA 2": "CCTTCATTCTACGCTGTCAATCGCTTCGGGTGGGTATACTCACCTTTGACCTTTCGATGC"}, "B2": {"name": "NRC3_wobSeed39_DR1_A19T_o1 (dsDNA)", "DNA 1": "GCCGAACTAGGTCAAAGGTCAGTGAAAGGCGACGTAGCGATTGACAGCGTAGAATGAAGG", "DNA 2": "CCTTCATTCTACGCTGTCAATCGCTACGTCGCCTTTCACTGACCTTTGACCTAGTTCGGC"}, "B3": {"name": "NRC3_wobSeed38_DR1_T16A_o1 (dsDNA)", "DNA 1": "GCCCTGCTAGGTCAAAGGTCAGCTAAAGCAGCTCGCGCGATTGACAGCGTAGAATGAAGG", "DNA 2": "CCTTCATTCTACGCTGTCAATCGCGCGAGCTGCTTTAGCTGACCTTTGACCTAGCAGGGC"}, "B4": {"name": "NRC3_random_hg19_59_o1 (dsDNA)", "DNA 1": "GCCAGTTCAAGACCAGCCTGGCCAACATGGTGAAACGCGATTGACAGCGTAGAATGAAGG", "DNA 2": "CCTTCATTCTACGCTGTCAATCGCGTTTCACCATGTTGGCCAGGCTGGTCTTGAACTGGC"}, "B5": {"name": "NRC3_wobSeed73_DR3_C28T_o1 (dsDNA)", "DNA 1": "GCCAAACTAGGTCACAGAGGTCAAAGTTCGTGCGTAGCGATTGACAGCGTAGAATGAAGG", "DNA 2": "CCTTCATTCTACGCTGTCAATCGCTACGCACGAACTTTGACCTCTGTGACCTAGTTTGGC"}, "B6": {"name": "NRC3_wobSeed121_DR5_G18A_o1 (dsDNA)", "DNA 1": "GCCAAACTAGGTCACCGAAAGGTCAAAGTCCGCATGGCGATTGACAGCGTAGAATGAAGG", "DNA 2": "CCTTCATTCTACGCTGTCAATCGCCATGCGGACTTTGACCTTTCGGTGACCTAGTTTGGC"}, "B7": {"name": "NRC3_wobSeed26_DR1_T9C_o1 (dsDNA)", "DNA 1": "GCTCTAGTCGGTCAAAGGTCACACACTCGAAATGCGGCGATTGACAGCGTAGAATGAAGG", "DNA 2": "CCTTCATTCTACGCTGTCAATCGCCGCATTTCGAGTGTGTGACCTTTGACCGACTAGAGC"}, "B8": {"name": "NRC3_wobSeed46_DR1_G13C_o1 (dsDNA)", "DNA 1": "GCTTACCAAGGTCAAAGGTCGTTGATGCACGCCTTGGCGATTGACAGCGTAGAATGAAGG", "DNA 2": "CCTTCATTCTACGCTGTCAATCGCCAAGGCGTGCATCAACGACCTTTGACCTTGGTAAGC"}}}
{"molecular_target": "RARa:RXRa (Homo sapiens, UniProt P10276;P19793 full;full)", "sequence (P10276 whole entry, chain 1 of 2)": "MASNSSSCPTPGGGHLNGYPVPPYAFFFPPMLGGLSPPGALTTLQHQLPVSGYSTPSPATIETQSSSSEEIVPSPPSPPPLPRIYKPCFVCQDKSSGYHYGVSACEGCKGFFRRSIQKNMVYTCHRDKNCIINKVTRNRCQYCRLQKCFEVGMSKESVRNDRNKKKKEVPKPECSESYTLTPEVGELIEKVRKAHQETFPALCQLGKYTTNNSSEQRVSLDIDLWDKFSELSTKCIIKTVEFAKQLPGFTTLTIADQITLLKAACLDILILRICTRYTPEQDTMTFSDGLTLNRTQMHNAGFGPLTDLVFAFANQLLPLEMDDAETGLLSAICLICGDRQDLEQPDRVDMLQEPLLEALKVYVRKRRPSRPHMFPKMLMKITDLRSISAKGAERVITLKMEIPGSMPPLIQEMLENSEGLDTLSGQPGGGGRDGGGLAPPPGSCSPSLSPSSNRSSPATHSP", "sequence (P19793 whole entry, chain 2 of 2)": "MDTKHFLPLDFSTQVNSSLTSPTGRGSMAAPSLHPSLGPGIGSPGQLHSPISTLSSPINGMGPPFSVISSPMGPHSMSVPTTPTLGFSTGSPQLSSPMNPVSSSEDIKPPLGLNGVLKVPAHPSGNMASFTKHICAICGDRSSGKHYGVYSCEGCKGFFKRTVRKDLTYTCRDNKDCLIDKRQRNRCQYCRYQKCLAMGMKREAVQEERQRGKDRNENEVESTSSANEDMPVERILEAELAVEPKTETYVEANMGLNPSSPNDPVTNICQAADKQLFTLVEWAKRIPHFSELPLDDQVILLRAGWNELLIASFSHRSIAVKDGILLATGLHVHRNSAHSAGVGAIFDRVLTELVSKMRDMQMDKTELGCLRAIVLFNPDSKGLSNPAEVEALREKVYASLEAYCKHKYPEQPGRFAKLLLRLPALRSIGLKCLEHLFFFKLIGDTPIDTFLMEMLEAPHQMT", "assay": "no ligand; PBM; 270 nM : 90 nM RXRa; PBS pH 7.4, 2% milk, 0.02% Triton X-100, 1 mM DTT, BSA, 0.4 mg/ml salmon testes DNA", "conditions": "tags: His kept;His cleaved; copies: 1;1; label: surface-attached array probe", "in_short": "(§1)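 Binding buffer was PBS pH 7.4 with 2% milk, 0.02% Triton X-100, 1 mM DTT, 0.2 mg/mL BSA and 0.4 mg/ml salmon testes DNA. In it, ligand-free nuclear receptor dimers were incubated 1 h on custom Agilent 4×180K protein-binding microarrays carrying double-stranded probes. Antibodies against each partner (one per run) detected binding, and z-scores were calculated against random background probes after regression normalization of scanned fluorescence.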"}
{"binder": "B1", "binding signal": "8.66 PBM z-score against 500 random probes"}
{"binder": "B2", "binding signal": "8.51 PBM z-score against 500 random probes"}
{"binder": "B3", "binding signal": "8.86 PBM z-score against 500 random probes"}
{"binder": "B4", "binding signal": "-0 PBM z-score against 500 random probes"}
{"binder": "B5", "binding signal": "8.8 PBM z-score against 500 random probes"}
{"binder": "B6", "binding signal": "8.55 PBM z-score against 500 random probes"}
{"binder": "B7", "binding signal": "8.22 PBM z-score against 500 random probes"}
{"binder": "B8", "binding signal": "8.61 PBM z-score against 500 random probes"}
{"molecular_target": "RARg:RXRa (Homo sapiens, UniProt P13631;P19793 full;full)", "sequence (P13631 whole entry, chain 1 of 2)": "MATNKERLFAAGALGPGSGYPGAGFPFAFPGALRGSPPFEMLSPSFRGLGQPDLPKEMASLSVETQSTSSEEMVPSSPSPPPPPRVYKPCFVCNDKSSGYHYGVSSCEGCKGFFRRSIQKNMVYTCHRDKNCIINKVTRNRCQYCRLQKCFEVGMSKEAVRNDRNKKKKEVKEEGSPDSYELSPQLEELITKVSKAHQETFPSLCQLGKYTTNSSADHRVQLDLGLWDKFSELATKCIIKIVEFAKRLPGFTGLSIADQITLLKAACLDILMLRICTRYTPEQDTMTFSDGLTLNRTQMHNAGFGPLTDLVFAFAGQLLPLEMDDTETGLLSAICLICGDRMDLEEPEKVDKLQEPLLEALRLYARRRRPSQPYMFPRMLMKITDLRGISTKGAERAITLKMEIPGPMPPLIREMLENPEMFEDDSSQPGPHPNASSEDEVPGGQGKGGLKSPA", "sequence (P19793 whole entry, chain 2 of 2)": "as the sequence (P19793 whole entry, chain 2 of 2) above", "assay": "no ligand; PBM; 270 nM : 90 nM RXRa; PBS pH 7.4, 2% milk, 0.02% Triton X-100, 1 mM DTT, BSA, 0.4 mg/ml salmon testes DNA", "conditions": "tags: His kept;His cleaved; copies: 1;1; label: surface-attached array probe", "in_short": "as §1"}
{"binder": "B1", "binding signal": "8.43 PBM z-score against 500 random probes"}
{"binder": "B2", "binding signal": "8.09 PBM z-score against 500 random probes"}
{"binder": "B3", "binding signal": "8.54 PBM z-score against 500 random probes"}
{"binder": "B7", "binding signal": "8.36 PBM z-score against 500 random probes"}
{"binder": "B8", "binding signal": "7.78 PBM z-score against 500 random probes"}
{"molecular_target": "PPARa:RXRa (Homo sapiens, UniProt Q07869;P19793 full;full)", "sequence (Q07869 whole entry, chain 1 of 2)": "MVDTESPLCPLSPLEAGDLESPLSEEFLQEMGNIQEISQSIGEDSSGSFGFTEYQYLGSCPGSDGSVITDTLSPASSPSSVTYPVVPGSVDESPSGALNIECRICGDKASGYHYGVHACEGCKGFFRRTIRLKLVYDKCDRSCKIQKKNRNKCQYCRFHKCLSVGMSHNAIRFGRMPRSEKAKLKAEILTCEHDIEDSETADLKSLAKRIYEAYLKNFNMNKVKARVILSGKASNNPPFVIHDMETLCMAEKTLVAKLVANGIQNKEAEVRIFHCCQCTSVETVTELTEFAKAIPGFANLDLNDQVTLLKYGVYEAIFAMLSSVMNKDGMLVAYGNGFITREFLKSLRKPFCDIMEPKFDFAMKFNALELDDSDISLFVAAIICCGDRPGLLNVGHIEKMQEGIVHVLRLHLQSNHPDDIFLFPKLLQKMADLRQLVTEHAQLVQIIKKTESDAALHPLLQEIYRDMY", "sequence (P19793 whole entry, chain 2 of 2)": "as the sequence (P19793 whole entry, chain 2 of 2) above", "assay": "no ligand; PBM; 270 nM : 90 nM RXRa; PBS pH 7.4, 2% milk, 0.02% Triton X-100, 1 mM DTT, BSA, 0.4 mg/ml salmon testes DNA", "conditions": "tags: GST kept;His cleaved; copies: 1;1; label: surface-attached array probe", "in_short": "as §1"}
{"binder": "B1", "binding signal": "7.53 PBM z-score against 500 random probes"}
{"binder": "B2", "binding signal": "7.58 PBM z-score against 500 random probes"}
{"binder": "B3", "binding signal": "6.82 PBM z-score against 500 random probes"}
{"binder": "B6", "binding signal": "6.77 PBM z-score against 500 random probes"}
{"binder": "B7", "binding signal": "6.91 PBM z-score against 500 random probes"}
{"binder": "B8", "binding signal": "6.85 PBM z-score against 500 random probes"}
{"molecular_target": "LXRb:RXRa (Homo sapiens, UniProt P55055;P19793 full;full)", "sequence (P55055 whole entry, chain 1 of 2)": "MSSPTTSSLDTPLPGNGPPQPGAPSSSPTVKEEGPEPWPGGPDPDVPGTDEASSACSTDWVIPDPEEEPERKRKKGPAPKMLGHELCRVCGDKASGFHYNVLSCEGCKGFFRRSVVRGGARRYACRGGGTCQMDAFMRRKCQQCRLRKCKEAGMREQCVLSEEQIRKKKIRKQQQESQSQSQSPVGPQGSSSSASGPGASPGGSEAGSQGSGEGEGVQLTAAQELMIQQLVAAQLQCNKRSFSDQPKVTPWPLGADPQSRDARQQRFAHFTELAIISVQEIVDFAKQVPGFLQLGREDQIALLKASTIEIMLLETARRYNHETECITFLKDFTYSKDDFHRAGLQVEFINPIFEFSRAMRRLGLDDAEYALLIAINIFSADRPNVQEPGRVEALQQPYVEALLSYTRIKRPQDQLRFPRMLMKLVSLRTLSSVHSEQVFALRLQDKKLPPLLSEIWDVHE", "sequence (P19793 whole entry, chain 2 of 2)": "as the sequence (P19793 whole entry, chain 2 of 2) above", "assay": "no ligand; PBM; 270 nM : 90 nM RXRa; PBS pH 7.4, 2% milk, 0.02% Triton X-100, 1 mM DTT, BSA, 0.4 mg/ml salmon testes DNA", "conditions": "tags: His kept;His cleaved; copies: 1;1; label: surface-attached array probe", "in_short": "as §1"}
{"binder": "B1", "binding signal": "6.85 PBM z-score against 500 random probes"}
{"binder": "B3", "binding signal": "5.81 PBM z-score against 500 random probes"}
{"binder": "B6", "binding signal": "6.47 PBM z-score against 500 random probes"}
{"binder": "B8", "binding signal": "6.04 PBM z-score against 500 random probes"}
{"molecular_target": "LXRa:RXRa (Homo sapiens, UniProt Q13133;P19793 full;full)", "sequence (Q13133 whole entry, chain 1 of 2)": "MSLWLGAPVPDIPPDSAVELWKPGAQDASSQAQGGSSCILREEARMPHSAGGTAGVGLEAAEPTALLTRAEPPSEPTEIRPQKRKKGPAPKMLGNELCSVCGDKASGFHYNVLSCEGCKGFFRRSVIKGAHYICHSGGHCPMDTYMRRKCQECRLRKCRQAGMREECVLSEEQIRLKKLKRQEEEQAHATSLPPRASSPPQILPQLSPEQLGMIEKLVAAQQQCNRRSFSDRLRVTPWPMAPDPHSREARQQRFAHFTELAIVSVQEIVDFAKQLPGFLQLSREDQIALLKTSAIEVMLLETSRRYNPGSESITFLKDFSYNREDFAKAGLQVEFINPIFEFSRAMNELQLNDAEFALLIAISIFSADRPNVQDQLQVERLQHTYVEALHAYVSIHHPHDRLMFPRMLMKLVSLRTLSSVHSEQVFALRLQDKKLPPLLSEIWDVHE", "sequence (P19793 whole entry, chain 2 of 2)": "as the sequence (P19793 whole entry, chain 2 of 2) above", "assay": "no ligand; PBM; 270 nM : 90 nM RXRa; PBS pH 7.4, 2% milk, 0.02% Triton X-100, 1 mM DTT, BSA, 0.4 mg/ml salmon testes DNA", "conditions": "tags: His kept;His cleaved; copies: 1;1; label: surface-attached array probe", "in_short": "as §1"}
{"binder": "B1", "binding signal": "7.65 PBM z-score against 500 random probes"}
{"binder": "B4", "binding signal": "0.49 PBM z-score against 500 random probes"}
{"binder": "B6", "binding signal": "6.91 PBM z-score against 500 random probes"}
{"binder": "B7", "binding signal": "6.67 PBM z-score against 500 random probes"}
{"binder": "B8", "binding signal": "7.04 PBM z-score against 500 random probes"}
{"molecular_target": "RARb:RXRa (Homo sapiens, UniProt P10826;P19793 full;full)", "sequence (P10826 whole entry, chain 1 of 2)": "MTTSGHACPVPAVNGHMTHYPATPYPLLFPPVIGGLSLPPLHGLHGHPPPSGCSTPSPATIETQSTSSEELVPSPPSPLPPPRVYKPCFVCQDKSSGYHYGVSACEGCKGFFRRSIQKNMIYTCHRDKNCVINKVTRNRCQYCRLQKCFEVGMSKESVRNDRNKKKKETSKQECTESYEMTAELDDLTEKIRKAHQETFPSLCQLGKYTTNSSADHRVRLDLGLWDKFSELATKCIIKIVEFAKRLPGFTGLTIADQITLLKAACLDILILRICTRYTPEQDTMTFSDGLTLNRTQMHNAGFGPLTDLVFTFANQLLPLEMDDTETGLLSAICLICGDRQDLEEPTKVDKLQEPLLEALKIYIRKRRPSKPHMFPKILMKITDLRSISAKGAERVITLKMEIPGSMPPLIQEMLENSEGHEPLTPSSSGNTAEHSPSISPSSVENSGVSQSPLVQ", "sequence (P19793 whole entry, chain 2 of 2)": "as the sequence (P19793 whole entry, chain 2 of 2) above", "assay": "no ligand; PBM; 270 nM : 90 nM RXRa; PBS pH 7.4, 2% milk, 0.02% Triton X-100, 1 mM DTT, BSA, 0.4 mg/ml salmon testes DNA", "conditions": "tags: His kept;His cleaved; copies: 1;1; label: surface-attached array probe", "in_short": "as §1"}
{"binder": "B1", "binding signal": "6.19 PBM z-score against 500 random probes"}
{"binder": "B2", "binding signal": "5.46 PBM z-score against 500 random probes"}
{"binder": "B3", "binding signal": "5.62 PBM z-score against 500 random probes"}
{"binder": "B6", "binding signal": "5.67 PBM z-score against 500 random probes"}
{"binder": "B8", "binding signal": "5.44 PBM z-score against 500 random probes"}
{"molecular_target": "PXR:RXRa (Homo sapiens, UniProt O75469;P19793 full;full)", "sequence (O75469 whole entry, chain 1 of 2)": "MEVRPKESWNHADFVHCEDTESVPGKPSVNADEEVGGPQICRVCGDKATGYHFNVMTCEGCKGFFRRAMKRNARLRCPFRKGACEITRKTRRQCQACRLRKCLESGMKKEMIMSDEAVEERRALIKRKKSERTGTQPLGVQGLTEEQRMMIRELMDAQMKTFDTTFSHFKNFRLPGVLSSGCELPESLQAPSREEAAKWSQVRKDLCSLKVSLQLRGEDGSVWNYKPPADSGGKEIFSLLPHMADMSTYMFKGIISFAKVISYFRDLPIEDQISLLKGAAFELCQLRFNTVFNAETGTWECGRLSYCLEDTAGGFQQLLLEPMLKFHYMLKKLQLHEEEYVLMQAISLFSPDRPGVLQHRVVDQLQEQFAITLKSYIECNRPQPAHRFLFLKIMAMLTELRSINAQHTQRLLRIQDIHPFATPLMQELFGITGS", "sequence (P19793 whole entry, chain 2 of 2)": "as the sequence (P19793 whole entry, chain 2 of 2) above", "assay": "no ligand; PBM; 270 nM : 90 nM RXRa; PBS pH 7.4, 2% milk, 0.02% Triton X-100, 1 mM DTT, BSA, 0.4 mg/ml salmon testes DNA", "conditions": "tags: His kept;His cleaved; copies: 1;1; label: surface-attached array probe", "in_short": "as §1"}
{"binder": "B1", "binding signal": "6.57 PBM z-score against 500 random probes"}
{"binder": "B2", "binding signal": "6.52 PBM z-score against 500 random probes"}
{"binder": "B3", "binding signal": "6.86 PBM z-score against 500 random probes"}
{"binder": "B5", "binding signal": "7.41 PBM z-score against 500 random probes"}
{"binder": "B6", "binding signal": "6.93 PBM z-score against 500 random probes"}
{"binder": "B8", "binding signal": "7 PBM z-score against 500 random probes"}
{"molecular_target": "FXR:RXRa (Homo sapiens, UniProt Q96RI1;P19793 full;full)", "assay": "no ligand; PBM; 270 nM : 90 nM RXRa; PBS pH 7.4, 2% milk, 0.02% Triton X-100, 1 mM DTT, BSA, 0.4 mg/ml salmon testes DNA", "conditions": "tags: His kept;His cleaved; copies: 1;1; label: surface-attached array probe", "in_short": "as §1"}
{"binder": "B1", "binding signal": "8.87 PBM z-score against 500 random probes"}
{"binder": "B8", "binding signal": "8.17 PBM z-score against 500 random probes"}
{"molecular_target": "PPARg:RXRa (Homo sapiens, UniProt P37231;P19793 full;full)", "sequence (P37231 29-505, chain 1 of 2)": "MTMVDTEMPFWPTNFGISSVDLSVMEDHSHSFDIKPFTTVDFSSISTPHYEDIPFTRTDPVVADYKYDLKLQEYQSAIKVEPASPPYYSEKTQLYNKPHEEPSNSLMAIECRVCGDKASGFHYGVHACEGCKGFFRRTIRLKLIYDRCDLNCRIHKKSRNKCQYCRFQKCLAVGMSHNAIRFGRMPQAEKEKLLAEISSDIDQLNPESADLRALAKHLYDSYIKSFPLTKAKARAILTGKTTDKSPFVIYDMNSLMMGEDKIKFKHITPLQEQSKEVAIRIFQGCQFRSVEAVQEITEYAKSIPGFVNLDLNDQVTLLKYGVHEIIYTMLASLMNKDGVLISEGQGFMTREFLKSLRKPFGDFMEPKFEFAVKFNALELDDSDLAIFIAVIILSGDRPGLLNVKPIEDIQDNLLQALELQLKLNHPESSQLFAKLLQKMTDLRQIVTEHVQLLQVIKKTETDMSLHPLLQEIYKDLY", "sequence (P19793 whole entry, chain 2 of 2)": "as the sequence (P19793 whole entry, chain 2 of 2) above", "assay": "no ligand; PBM; 180 nM : 90 nM RXRa; PBS pH 7.4, 2% milk, 0.02% Triton X-100, 1 mM DTT, BSA, 0.4 mg/ml salmon testes DNA", "conditions": "tags: His kept;His cleaved; copies: 1;1; label: surface-attached array probe"}
{"binder": "B1", "binding signal": "10 PBM z-score against 500 random probes"}
{"binder": "B2", "binding signal": "14 PBM z-score against 500 random probes"}
{"binder": "B3", "binding signal": "12.7 PBM z-score against 500 random probes"}
{"binder": "B4", "binding signal": "0.03 PBM z-score against 500 random probes"}
{"binder": "B5", "binding signal": "10.8 PBM z-score against 500 random probes"}
{"binder": "B6", "binding signal": "10.5 PBM z-score against 500 random probes"}
{"binder": "B7", "binding signal": "12.4 PBM z-score against 500 random probes"}
{"binder": "B8", "binding signal": "10.5 PBM z-score against 500 random probes"}
{"molecular_target": "RXRa (Homo sapiens, UniProt P19793)", "sequence (P19793 whole entry)": "as the sequence (P19793 whole entry, chain 2 of 2) above", "assay": "no ligand; PBM; 180 nM; PBS pH 7.4, 2% milk, 0.02% Triton X-100, 1 mM DTT, BSA, 0.4 mg/ml salmon testes DNA", "conditions": "tags: His cleaved; chain copies: 2; label: surface-attached array probe"}
{"binder": "B1", "binding signal": "10.1 PBM z-score against 500 random probes"}
{"binder": "B2", "binding signal": "9.27 PBM z-score against 500 random probes"}
{"binder": "B3", "binding signal": "10 PBM z-score against 500 random probes"}
{"binder": "B5", "binding signal": "8.65 PBM z-score against 500 random probes"}
{"binder": "B7", "binding signal": "8.95 PBM z-score against 500 random probes"}
{"binder": "B8", "binding signal": "9.65 PBM z-score against 500 random probes"}
